Assay results reported in article PMC9741643.

Key:
[1] = target: mouse IgG1 kappa anti-CD3 antibody (clone UTH1, BD bioscience 555329) (mouse); assay: cross-linking; photo-crosslinking through BpA in PpL: 50-100 uM PpL construct with 1-4 uM antibody in PBS pH7.6, 365 nm light (6.4 mW/cm^2) up to 1 h; products reduced with DTT and read on SDS-PAGE
[2] = target: Cetuximab (Selleck Chemicals A2000); assay: as above

Substance: PpL-R33BpA (PpL-linker-FLAG construct with BpA at R33) (designed binder)
- yield of conjugated to un-conjugated light chain (by gel intensity) [1]: 30%

Substance: PpL-R33BpA with linker arm and Sortase A recognition site (PpL with the sortase site only) (designed binder)
- photoconjugation yield (by gel) [2]: 75%
